Test results taken from patent US20230357348A1 (AstraZeneca / MedImmune, published 2023).
Starred links: 1 amine or outer side, 2 acyl side, 3 side chain; linkers in the order of their positions; H or OH if unused. Non-standard residues stand in square brackets, D forms with d. Groups on a side chain read outwards from the residue. No end group written: not given here. *: point of attachment. C20 diacid = O=C(O)CCCCCCCCCCCCCCCCCCC(=O)*; C18 diacid = O=C(O)CCCCCCCCCCCCCCCCC(=O)*; γGlu = O=C(O)[C@H](CCC(=O)[*:2])N[*:1]; αMeF = C[C@](N)(Cc1ccccc1)C(=O)O; AEEA = NCCOCCOCC(=O)O; Aib = CC(C)(N)C(=O)O

B1: Peptide 437 (peptide)
peptide: H[Aib]QGTFTSDVSK[αMeF]LDRK([AEEA-AEEA-γGlu-C20 diacid])RAQDFVRWLV[Aib]E-NH2
modifications: N-terminus assumed
SMILES: CC(C)C[C@H](NC(=O)[C@H](Cc1c[nH]c2ccccc12)NC(=O)[C@H](CCCNC(=N)N)NC(=O)[C@@H](NC(=O)[C@H](Cc1ccccc1)NC(=O)[C@H](CC(=O)O)NC(=O)[C@H](CCC(N)=O)NC(=O)[C@H](C)NC(=O)[C@H](CCCNC(=N)N)NC(=O)[C@H](CCCCNC(=O)COCCOCCNC(=O)COCCOCCNC(=O)CC[C@H](NC(=O)CCCCCCCCCCCCCCCCCCC(=O)O)C(=O)O)NC(=O)[C@H](CCCNC(=N)N)NC(=O)[C@H](CC(=O)O)NC(=O)[C@H](CC(C)C)NC(=O)[C@](C)(Cc1ccccc1)NC(=O)[C@H](CCCCN)NC(=O)[C@H](CO)NC(=O)[C@@H](NC(=O)[C@H](CC(=O)O)NC(=O)[C@H](CO)NC(=O)[C@@H](NC(=O)[C@H](Cc1ccccc1)NC(=O)[C@@H](NC(=O)CNC(=O)[C@H](CCC(N)=O)NC(=O)C(C)(C)NC(=O)[C@@H](N)Cc1c[nH]cn1)[C@@H](C)O)[C@@H](C)O)C(C)C)C(C)C)C(=O)N[C@H](C(=O)NC(C)(C)C(=O)N[C@@H](CCC(=O)O)C(N)=O)C(C)C
B2: Peptide 443 (peptide)
peptide: H[Aib]QGTFTSDVSK[αMeF]LDKK([AEEA-AEEA-γGlu-C18 diacid])RARDFVRWLL[Aib]E-NH2
modifications: N-terminus assumed
SMILES: CC(C)C[C@H](NC(=O)[C@H](Cc1c[nH]c2ccccc12)NC(=O)[C@H](CCCNC(=N)N)NC(=O)[C@@H](NC(=O)[C@H](Cc1ccccc1)NC(=O)[C@H](CC(=O)O)NC(=O)[C@H](CCCNC(=N)N)NC(=O)[C@H](C)NC(=O)[C@H](CCCNC(=N)N)NC(=O)[C@H](CCCCNC(=O)COCCOCCNC(=O)COCCOCCNC(=O)CC[C@H](NC(=O)CCCCCCCCCCCCCCCCC(=O)O)C(=O)O)NC(=O)[C@H](CCCCN)NC(=O)[C@H](CC(=O)O)NC(=O)[C@H](CC(C)C)NC(=O)[C@](C)(Cc1ccccc1)NC(=O)[C@H](CCCCN)NC(=O)[C@H](CO)NC(=O)[C@@H](NC(=O)[C@H](CC(=O)O)NC(=O)[C@H](CO)NC(=O)[C@@H](NC(=O)[C@H](Cc1ccccc1)NC(=O)[C@@H](NC(=O)CNC(=O)[C@H](CCC(N)=O)NC(=O)C(C)(C)NC(=O)[C@@H](N)Cc1c[nH]cn1)[C@@H](C)O)[C@@H](C)O)C(C)C)C(C)C)C(=O)N[C@@H](CC(C)C)C(=O)NC(C)(C)C(=O)N[C@@H](CCC(=O)O)C(N)=O
B3: Peptide 436 (peptide)
peptide: H[Aib]QGTFTSDVSK[αMeF]LDRK([AEEA-AEEA-γGlu-C18 diacid])RAQDFVRWLV[Aib]E-NH2
modifications: N-terminus assumed
SMILES: CC(C)C[C@H](NC(=O)[C@H](Cc1c[nH]c2ccccc12)NC(=O)[C@H](CCCNC(=N)N)NC(=O)[C@@H](NC(=O)[C@H](Cc1ccccc1)NC(=O)[C@H](CC(=O)O)NC(=O)[C@H](CCC(N)=O)NC(=O)[C@H](C)NC(=O)[C@H](CCCNC(=N)N)NC(=O)[C@H](CCCCNC(=O)COCCOCCNC(=O)COCCOCCNC(=O)CC[C@H](NC(=O)CCCCCCCCCCCCCCCCC(=O)O)C(=O)O)NC(=O)[C@H](CCCNC(=N)N)NC(=O)[C@H](CC(=O)O)NC(=O)[C@H](CC(C)C)NC(=O)[C@](C)(Cc1ccccc1)NC(=O)[C@H](CCCCN)NC(=O)[C@H](CO)NC(=O)[C@@H](NC(=O)[C@H](CC(=O)O)NC(=O)[C@H](CO)NC(=O)[C@@H](NC(=O)[C@H](Cc1ccccc1)NC(=O)[C@@H](NC(=O)CNC(=O)[C@H](CCC(N)=O)NC(=O)C(C)(C)NC(=O)[C@@H](N)Cc1c[nH]cn1)[C@@H](C)O)[C@@H](C)O)C(C)C)C(C)C)C(=O)N[C@H](C(=O)NC(C)(C)C(=O)N[C@@H](CCC(=O)O)C(N)=O)C(C)C
B4: Peptide 442 (peptide)
peptide: H[Aib]QGTFTSDVSK[αMeF]LDKK([AEEA-AEEA-γGlu-C18 diacid])RAQDFVRWLLE[Aib]G-NH2
modifications: N-terminus assumed
SMILES: CC(C)C[C@H](NC(=O)[C@H](Cc1c[nH]c2ccccc12)NC(=O)[C@H](CCCNC(=N)N)NC(=O)[C@@H](NC(=O)[C@H](Cc1ccccc1)NC(=O)[C@H](CC(=O)O)NC(=O)[C@H](CCC(N)=O)NC(=O)[C@H](C)NC(=O)[C@H](CCCNC(=N)N)NC(=O)[C@H](CCCCNC(=O)COCCOCCNC(=O)COCCOCCNC(=O)CC[C@H](NC(=O)CCCCCCCCCCCCCCCCC(=O)O)C(=O)O)NC(=O)[C@H](CCCCN)NC(=O)[C@H](CC(=O)O)NC(=O)[C@H](CC(C)C)NC(=O)[C@](C)(Cc1ccccc1)NC(=O)[C@H](CCCCN)NC(=O)[C@H](CO)NC(=O)[C@@H](NC(=O)[C@H](CC(=O)O)NC(=O)[C@H](CO)NC(=O)[C@@H](NC(=O)[C@H](Cc1ccccc1)NC(=O)[C@@H](NC(=O)CNC(=O)[C@H](CCC(N)=O)NC(=O)C(C)(C)NC(=O)[C@@H](N)Cc1c[nH]cn1)[C@@H](C)O)[C@@H](C)O)C(C)C)C(C)C)C(=O)N[C@@H](CC(C)C)C(=O)N[C@@H](CCC(=O)O)C(=O)NC(C)(C)C(=O)NCC(N)=O
B5: Peptide 438 (peptide)
peptide: H[Aib]QGTFTSDVSK[αMeF]LDKK([AEEA-AEEA-γGlu-C18 diacid])RAQDFVRWLEA[Aib]G-NH2
modifications: N-terminus assumed
SMILES: CC(C)C[C@H](NC(=O)[C@H](Cc1c[nH]c2ccccc12)NC(=O)[C@H](CCCNC(=N)N)NC(=O)[C@@H](NC(=O)[C@H](Cc1ccccc1)NC(=O)[C@H](CC(=O)O)NC(=O)[C@H](CCC(N)=O)NC(=O)[C@H](C)NC(=O)[C@H](CCCNC(=N)N)NC(=O)[C@H](CCCCNC(=O)COCCOCCNC(=O)COCCOCCNC(=O)CC[C@H](NC(=O)CCCCCCCCCCCCCCCCC(=O)O)C(=O)O)NC(=O)[C@H](CCCCN)NC(=O)[C@H](CC(=O)O)NC(=O)[C@H](CC(C)C)NC(=O)[C@](C)(Cc1ccccc1)NC(=O)[C@H](CCCCN)NC(=O)[C@H](CO)NC(=O)[C@@H](NC(=O)[C@H](CC(=O)O)NC(=O)[C@H](CO)NC(=O)[C@@H](NC(=O)[C@H](Cc1ccccc1)NC(=O)[C@@H](NC(=O)CNC(=O)[C@H](CCC(N)=O)NC(=O)C(C)(C)NC(=O)[C@@H](N)Cc1c[nH]cn1)[C@@H](C)O)[C@@H](C)O)C(C)C)C(C)C)C(=O)N[C@@H](CCC(=O)O)C(=O)N[C@@H](C)C(=O)NC(C)(C)C(=O)NCC(N)=O
B6: Peptide 440 (peptide)
peptide: H[Aib]QGTFTSDVSK[αMeF]LDKK([AEEA-AEEA-γGlu-C20 diacid])RARDFVRWLL[Aib]E-OH
modifications: N-terminus assumed
SMILES: CC(C)C[C@H](NC(=O)[C@H](Cc1c[nH]c2ccccc12)NC(=O)[C@H](CCCNC(=N)N)NC(=O)[C@@H](NC(=O)[C@H](Cc1ccccc1)NC(=O)[C@H](CC(=O)O)NC(=O)[C@H](CCCNC(=N)N)NC(=O)[C@H](C)NC(=O)[C@H](CCCNC(=N)N)NC(=O)[C@H](CCCCNC(=O)COCCOCCNC(=O)COCCOCCNC(=O)CC[C@H](NC(=O)CCCCCCCCCCCCCCCCCCC(=O)O)C(=O)O)NC(=O)[C@H](CCCCN)NC(=O)[C@H](CC(=O)O)NC(=O)[C@H](CC(C)C)NC(=O)[C@](C)(Cc1ccccc1)NC(=O)[C@H](CCCCN)NC(=O)[C@H](CO)NC(=O)[C@@H](NC(=O)[C@H](CC(=O)O)NC(=O)[C@H](CO)NC(=O)[C@@H](NC(=O)[C@H](Cc1ccccc1)NC(=O)[C@@H](NC(=O)CNC(=O)[C@H](CCC(N)=O)NC(=O)C(C)(C)NC(=O)[C@@H](N)Cc1c[nH]cn1)[C@@H](C)O)[C@@H](C)O)C(C)C)C(C)C)C(=O)N[C@@H](CC(C)C)C(=O)NC(C)(C)C(=O)N[C@@H](CCC(=O)O)C(=O)O
B7: Peptide 441 (peptide)
peptide: H[Aib]QGTFTSDVSK[αMeF]LDKK([AEEA-AEEA-γGlu-C20 diacid])RAQDFVRWLL[Aib]E-NH2
modifications: N-terminus assumed
SMILES: CC(C)C[C@H](NC(=O)[C@H](Cc1c[nH]c2ccccc12)NC(=O)[C@H](CCCNC(=N)N)NC(=O)[C@@H](NC(=O)[C@H](Cc1ccccc1)NC(=O)[C@H](CC(=O)O)NC(=O)[C@H](CCC(N)=O)NC(=O)[C@H](C)NC(=O)[C@H](CCCNC(=N)N)NC(=O)[C@H](CCCCNC(=O)COCCOCCNC(=O)COCCOCCNC(=O)CC[C@H](NC(=O)CCCCCCCCCCCCCCCCCCC(=O)O)C(=O)O)NC(=O)[C@H](CCCCN)NC(=O)[C@H](CC(=O)O)NC(=O)[C@H](CC(C)C)NC(=O)[C@](C)(Cc1ccccc1)NC(=O)[C@H](CCCCN)NC(=O)[C@H](CO)NC(=O)[C@@H](NC(=O)[C@H](CC(=O)O)NC(=O)[C@H](CO)NC(=O)[C@@H](NC(=O)[C@H](Cc1ccccc1)NC(=O)[C@@H](NC(=O)CNC(=O)[C@H](CCC(N)=O)NC(=O)C(C)(C)NC(=O)[C@@H](N)Cc1c[nH]cn1)[C@@H](C)O)[C@@H](C)O)C(C)C)C(C)C)C(=O)N[C@@H](CC(C)C)C(=O)NC(C)(C)C(=O)N[C@@H](CCC(=O)O)C(N)=O
B8: Peptide 439 (peptide)
peptide: H[Aib]QGTFTSDVSK[αMeF]LDRK([AEEA-AEEA-γGlu-C18 diacid])RAQDFVRWLL[Aib]E-NH2
modifications: N-terminus assumed
SMILES: CC(C)C[C@H](NC(=O)[C@H](Cc1c[nH]c2ccccc12)NC(=O)[C@H](CCCNC(=N)N)NC(=O)[C@@H](NC(=O)[C@H](Cc1ccccc1)NC(=O)[C@H](CC(=O)O)NC(=O)[C@H](CCC(N)=O)NC(=O)[C@H](C)NC(=O)[C@H](CCCNC(=N)N)NC(=O)[C@H](CCCCNC(=O)COCCOCCNC(=O)COCCOCCNC(=O)CC[C@H](NC(=O)CCCCCCCCCCCCCCCCC(=O)O)C(=O)O)NC(=O)[C@H](CCCNC(=N)N)NC(=O)[C@H](CC(=O)O)NC(=O)[C@H](CC(C)C)NC(=O)[C@](C)(Cc1ccccc1)NC(=O)[C@H](CCCCN)NC(=O)[C@H](CO)NC(=O)[C@@H](NC(=O)[C@H](CC(=O)O)NC(=O)[C@H](CO)NC(=O)[C@@H](NC(=O)[C@H](Cc1ccccc1)NC(=O)[C@@H](NC(=O)CNC(=O)[C@H](CCC(N)=O)NC(=O)C(C)(C)NC(=O)[C@@H](N)Cc1c[nH]cn1)[C@@H](C)O)[C@@H](C)O)C(C)C)C(C)C)C(=O)N[C@@H](CC(C)C)C(=O)NC(C)(C)C(=O)N[C@@H](CCC(=O)O)C(N)=O

These binders were tested against human GLP-1 receptor (hGLP-1R) (human, UniProt P43220 24-463) (assay: cell-based or functional assay).
B1 was tested, and the “hGLP-1R EC50 (pM)” value was 26.9 pM. B2 was tested, and the “hGLP-1R EC50 (pM)” value was 20.6 pM. With B3 the “hGLP-1R EC50 (pM)” value was 7.43 pM. With B4 the “hGLP-1R EC50 (pM)” value was 19.1 pM. In the case of B5, the “hGLP-1R EC50 (pM)” value is reported as 17.9 pM. For B6, the “hGLP-1R EC50 (pM)” value was 154 pM. In the case of B7, the “hGLP-1R EC50 (pM)” value is reported as 62.7 pM. B8 was tested, and the “hGLP-1R EC50 (pM)” value was 30.6 pM.

The binders below were run against human glucagon receptor (hGCGR) (human, UniProt P47871 26-477) (assay: cell-based or functional assay).
human glucagon receptor (hGCGR), sequence (P47871 26-477): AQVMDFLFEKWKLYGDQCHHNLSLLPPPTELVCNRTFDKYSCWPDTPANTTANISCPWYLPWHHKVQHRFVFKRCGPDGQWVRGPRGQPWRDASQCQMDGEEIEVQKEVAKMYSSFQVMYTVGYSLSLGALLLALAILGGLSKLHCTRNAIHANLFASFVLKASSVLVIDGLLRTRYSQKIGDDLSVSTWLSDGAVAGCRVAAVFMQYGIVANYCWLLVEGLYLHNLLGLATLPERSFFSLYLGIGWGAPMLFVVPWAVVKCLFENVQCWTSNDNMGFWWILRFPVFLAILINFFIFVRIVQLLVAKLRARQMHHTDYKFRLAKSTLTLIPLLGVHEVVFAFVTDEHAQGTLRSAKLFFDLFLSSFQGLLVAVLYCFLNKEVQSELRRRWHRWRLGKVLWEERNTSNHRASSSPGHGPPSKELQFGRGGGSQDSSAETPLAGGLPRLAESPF
In the case of B1, the “hGluc-R EC50 (pM)” value is reported as 96.9 pM. B2 was tested, and the “hGluc-R EC50 (pM)” value was 22.4 pM. For B3, the “hGluc-R EC50 (pM)” value was 68.8 pM. For B4, the “hGluc-R EC50 (pM)” value was 35.8 pM. With B5 the “hGluc-R EC50 (pM)” value was 68.9 pM. For B6, the “hGluc-R EC50 (pM)” value was 81 pM. For B7, the “hGluc-R EC50 (pM)” value was 72.8 pM. In the case of B8, the “hGluc-R EC50 (pM)” value is reported as 57.7 pM.
